From article PMC4056191 (Nature, 2012)
Residue numbers refer to the chain shown, from its start. In names and notes the source's numbering stands.

B1: GST–DAXX tower (183–251) E225A (domain or fragment)
chain: GSRRQIQRLEQLLALYVAEIRRLQEKELDLSELDDPDSAYLQAARLKRKLIRLFGRLCELKDCSSLTGR
B2: GST–DAXX tower (183–251) K229A (domain or fragment)
chain: B1 chain with A43E, K47A
B3: GST–DAXX tower (183–251) Q206A (domain or fragment)
chain: B1 chain with Q24A, A43E

Target: wild-type histone H3.3–H4 tetramers (human, UniProt P84243 1-136; P62805 1-103)
Experiment: pull-down

| Binder | binding result |
| --- | --- |
| B1 | binds |
| B2 | binds |
| B3 | binds |
